First the molecules themselves.
B1: Ribonuclease, P00648 (parent)
chain: MMKMEGIALKKRLSWISVCLLVLVSAAGMLFSTAAKTETSSHKAHTEAQVINTFDGVADYLQTYHKLPDNYITKSEAQALGWVASKGNLADVAPGKSIGGDIFSNREGKLPGKSGRTWREADINYTSGFRNSDRILYSSDWLIYKTTDHYQTFTKIR

The variants in the data set derive from B1. Particulars: Bacillus amyloliquefaciens; pH 6.3; 25 °C; Urea; Fluorescence; MES 50 mM; reversible: yes; structure 1BNI; whole UniProt chain shown.

As for MMKMEGIALKKRLSWISVCLLVLVSAAGMLFSTAAKTETSSHKAHTEAQVINTFAGVADYLQTYHKLPDNYITKSEAQALGWVASKGNLADVAPGKSIGGDIFSNREGKLPGKSGRTWREADINYTSGFRNSDRILYSSDWLIYKTTDHYQTFTKIA, the “ddG of mutation (higher = less stable)” value came out at 0.47 kcal/mol, the denaturant m value amounted to 1.96 kcal/mol/M, the “denaturant midpoint (higher = more stable)” value (from here on “denaturant midpoint”) was 4.36 M and the unfolding free energy is 9.46 kcal/mol.

Consider MMKMEGIALKKRLSWISVCLLVLVSAAGMLFSTAAKTETSSHKAHTEAQVINTFDGVADYLQTYHKLPDNYITKSEAQALGWVASKGNLADVAPGKSIGGDIFSNREGKLPGKSGRTWREADINYTSGFRNSDRILYSSDWLIYKTTDHYQTFTKIA, for which the “ddG of mutation (higher = less stable)” value stood at 0.46 kcal/mol, the denaturant m value came out at 2.26 kcal/mol/M, the “denaturant midpoint” value amounted to 4.37 M and the unfolding free energy is 9.47 kcal/mol.

For MMKMEGIALKKRLSWISVCLLVLVSAAGMLFSTAAKTETSSHKAHTEAQVINTFAGVAAYLQTYHKLPDNYITKSEAQALGWVASKGNLADVAPGKSIGGDIFSNREGKLPGKSGRTWREADINYTSGFRNSDRILYSSDWLIYKTTDHYQTFTKIR, the “ddG of mutation (higher = less stable)” value was determined as 0.89 kcal/mol, the denaturant m value came out at 1.98 kcal/mol/M, the “denaturant midpoint” value was 4.16 M and the unfolding free energy stood at 9.04 kcal/mol.

For the variant MMKMEGIALKKRLSWISVCLLVLVSAAGMLFSTAAKTETSSHKAHTEAQVINTFDGVAAYLQTYHKLPDNYITKSEAQALGWVASKGNLADVAPGKSIGGDIFSNREGKLPGKSGRTWREADINYTSGFRNSDRILYSSDWLIYKTTDHYQTFTKIA, the “ddG of mutation (higher = less stable)” value is -0.45 kcal/mol, the denaturant m value came out at 2.14 kcal/mol/M, the “denaturant midpoint” value stood at 4.78 M and the unfolding free energy turned out to be 10.4 kcal/mol.

MMKMEGIALKKRLSWISVCLLVLVSAAGMLFSTAAKTETSSHKAHTEAQVINTFAGVAAYLQTYHKLPDNYITKSEAQALGWVASKGNLADVAPGKSIGGDIFSNREGKLPGKSGRTWREADINYTSGFRNSDRILYSSDWLIYKTTDHYQTFTKIA: the “ddG of mutation (higher = less stable)” value is -0.11 kcal/mol, the denaturant m value was determined as 2.16 kcal/mol/M, the “denaturant midpoint” value was 4.63 M and the unfolding free energy stood at 10 kcal/mol.

For MMKMEGIALKKRLSWISVCLLVLVSAAGMLFSTAAKTETSSHKAHTEAQVINTFAGVADYLQTYHKLPDNYITKSEAQALGWVASKGNLADVAPGKSIGGDIFSNREGKLPGKSGRTWREADINYTSGFRNSDRILYSSDWLIYKTTDHYQTFTKIR, the “ddG of mutation (higher = less stable)” value worked out at 0.99 kcal/mol, the denaturant m value turned out to be 2.15 kcal/mol/M, the “denaturant midpoint” value came out at 4.12 M and the unfolding free energy is 8.94 kcal/mol.

MMKMEGIALKKRLSWISVCLLVLVSAAGMLFSTAAKTETSSHKAHTEAQVINTFDGVAAYLQTYHKLPDNYITKSEAQALGWVASKGNLADVAPGKSIGGDIFSNREGKLPGKSGRTWREADINYTSGFRNSDRILYSSDWLIYKTTDHYQTFTKIR: the “ddG of mutation (higher = less stable)” value came out at 0.34 kcal/mol, the denaturant m value was 2.12 kcal/mol/M, the “denaturant midpoint” value amounted to 4.42 M and the unfolding free energy stood at 9.59 kcal/mol.

These data come from FireProtDB (doi:10.1016/s0022-2836(99)80018-7).
